Data taken from patent US20240076389A1 (NATIONAL RESEARCH COUNCIL OF CANADA, published 2024).

T1: human AXL expressed on the cell surface of tumor cell lines (human, UniProt P30530 26-894)
T1 sequence (looked up): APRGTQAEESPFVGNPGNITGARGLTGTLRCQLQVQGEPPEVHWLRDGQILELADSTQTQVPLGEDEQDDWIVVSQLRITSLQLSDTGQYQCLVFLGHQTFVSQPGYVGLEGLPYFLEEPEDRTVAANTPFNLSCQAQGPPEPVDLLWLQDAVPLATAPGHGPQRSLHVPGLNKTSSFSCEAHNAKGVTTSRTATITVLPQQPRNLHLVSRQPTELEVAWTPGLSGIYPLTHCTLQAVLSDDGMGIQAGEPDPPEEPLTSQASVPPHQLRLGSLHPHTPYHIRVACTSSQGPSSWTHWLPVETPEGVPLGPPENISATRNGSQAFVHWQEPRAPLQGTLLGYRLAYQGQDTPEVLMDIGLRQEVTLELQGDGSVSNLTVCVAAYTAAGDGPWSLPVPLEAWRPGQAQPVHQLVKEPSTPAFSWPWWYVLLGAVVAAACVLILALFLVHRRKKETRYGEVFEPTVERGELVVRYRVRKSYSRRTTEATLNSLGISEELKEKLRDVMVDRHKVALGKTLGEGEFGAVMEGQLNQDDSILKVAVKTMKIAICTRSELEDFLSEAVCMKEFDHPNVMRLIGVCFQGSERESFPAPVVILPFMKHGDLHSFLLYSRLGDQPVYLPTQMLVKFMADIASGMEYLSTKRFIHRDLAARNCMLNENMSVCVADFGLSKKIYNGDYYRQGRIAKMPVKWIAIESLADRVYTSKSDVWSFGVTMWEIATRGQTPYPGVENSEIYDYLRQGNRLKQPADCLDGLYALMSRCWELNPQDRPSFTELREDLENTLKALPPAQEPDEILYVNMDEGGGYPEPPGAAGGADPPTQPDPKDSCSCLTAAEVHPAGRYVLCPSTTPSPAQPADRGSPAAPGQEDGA

T2: recombinant human AXL extracellular domain, C-terminally His8-tagged (rhAXL-ECD) (human, UniProt P30530 26-451)
T2 construct: Made in CHO cells; also called (rh)AXL-ECD His8; human AXL ECD
T2 sequence: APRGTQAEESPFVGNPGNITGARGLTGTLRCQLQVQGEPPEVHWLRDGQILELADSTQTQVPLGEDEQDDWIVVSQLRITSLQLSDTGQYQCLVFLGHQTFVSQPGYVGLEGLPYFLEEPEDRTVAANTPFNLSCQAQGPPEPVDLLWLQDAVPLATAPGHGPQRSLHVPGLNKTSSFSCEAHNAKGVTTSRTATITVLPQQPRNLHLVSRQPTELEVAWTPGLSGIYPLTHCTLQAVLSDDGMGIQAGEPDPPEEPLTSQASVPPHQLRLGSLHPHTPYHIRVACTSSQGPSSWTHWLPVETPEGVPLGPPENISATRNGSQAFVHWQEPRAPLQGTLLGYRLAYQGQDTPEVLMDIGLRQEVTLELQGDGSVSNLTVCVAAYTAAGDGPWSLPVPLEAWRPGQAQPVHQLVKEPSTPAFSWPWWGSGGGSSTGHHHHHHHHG

T3: mouse AXL extracellular domain (Sino cat. 51026-M08H) (mouse, UniProt Q00993 19-445)
T3 construct: extracellular domain; Bought protein; also called mouse AXL ECD
T3 sequence (looked up): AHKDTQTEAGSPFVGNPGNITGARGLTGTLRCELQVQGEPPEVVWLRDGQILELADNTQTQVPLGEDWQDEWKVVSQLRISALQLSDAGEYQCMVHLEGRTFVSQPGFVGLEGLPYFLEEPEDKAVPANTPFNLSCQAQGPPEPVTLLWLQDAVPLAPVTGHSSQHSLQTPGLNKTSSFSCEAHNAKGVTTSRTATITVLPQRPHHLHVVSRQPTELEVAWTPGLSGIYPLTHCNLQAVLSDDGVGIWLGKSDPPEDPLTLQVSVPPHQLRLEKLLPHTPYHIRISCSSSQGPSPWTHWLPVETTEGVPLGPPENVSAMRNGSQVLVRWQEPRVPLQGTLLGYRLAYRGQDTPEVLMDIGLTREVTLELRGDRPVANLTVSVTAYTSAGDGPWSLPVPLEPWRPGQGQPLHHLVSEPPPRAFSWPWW


Tests used:
[1] = molecular target: T1, human AXL expressed on the cell surface …; assay: cell-based or functional assay
[2] = molecular target: T1, human AXL expressed on the cell surface …; assay: cell-based or functional assay; remark: listed apart in the source
[3] = molecular target: T2, recombinant human AXL extracellular …; assay: ELISA on coated AXL ECD (100 ng/well), HRP-protein A
Method: (§1) ELISA. ELISAs against human, cyno and mouse AXL ECDs were conducted by immobilizing 100 ng of each protein in wells of Nunc MaxiSorp microplates overnight. Human AXL (aa 1-451) and cyno AXL (aa 1-449) were produced recombinantly as described in Example 10. Mouse AXL was purchased from Sino (cat. 51026-M08H). The next day, plates were blocked with 5% (w/v) dried milk in PBS. Murine mAbs (either hybridoma- or recombinantly-produced) or VHH-Fcs were diluted in PBS containing 1% BSA and 0.1% Tween-20 and added to wells for 2 hours at room temperature. Wells were washed 5× with PBS containing 0.1% Tween-20, then HRP-labeled protein A (diluted 1:1000 in PBS containing 1% BSA and 0.1% Tween™-20) was added to wells for 1 hour at room temperature. Wells were washed again 5× with PBS/0.1% Tween-20 and developed using TMB substrate. Absorbance was measured at 450 nm. As a positive control for mouse AXL binding, a commercial anti-mouse AXL mAb (clone 175128, R&D Systems MAB8541, rat IgG2A) was used and detected with donkey […] secondary antibody.

[4] = molecular target: T2, recombinant human AXL extracellular …; assay: SPR Biacore T200, mAb captured on anti-Fc, AXL ECD flowed, multi-cycle kinetics
Method: (§2) Surface plasmon resonance. For murine mAbs, binding to human and cynomolgus AXL ECD was assessed using a Biacore T200 instrument. Briefly, either anti-mouse or anti-human Fc antibody was immobilized on a research-grade CM5 series S sensor chip using amine coupling in acetate buffer. Murine or recombinant chimeric murine-human mAbs (mouse VH/VL; human constant regions) were captured, then recombinant human or cyno AXL ECD was flowed over the surface at different concentration ranges (0.1-500 nM) depending on the antibody. The running buffer was PBS/Tween-20 and the flow rate 100 uL/min. All binding studies were performed at 25° C. Surfaces were regenerated using 10 mM glycine, pH 1.5.

[5] = molecular target: T3, mouse AXL extracellular domain (Sino …); assay: ELISA on coated mouse AXL ECD (100 ng/well)
Method: as §1

[6] = molecular target: T4, recombinant cynomolgus AXL extracellular domain (cynomolgus); assay: SPR Biacore T200, mAb captured on anti-Fc, AXL ECD flowed, multi-cycle kinetics
T4 construct: range 1-449; also called Cyno AXL; cyno AXL ECD
Method: as §2

[7] = molecular target: T3, mouse AXL extracellular domain (Sino …); assay: ELISA on coated mouse AXL ECD (100 ng/well), VHH-Fc
Method: as §1

[8] = molecular target: T1, human AXL expressed on the cell surface …; assay: FACS on MDA-MB-231 luciferase cells, apparent Kd, human Fc format
Method: (§3) FACS binding assay. Adherent cells were dissociated with non-enzymatic Sigma Cell Dissociation Solution (Cat. No. C5789). Cells suspensions were added to polypropylene, V-bottom 96-well plates and incubated for 2 hours on ice with primary antibodies at concentrations ranging from 100 nM to 0.001 nM or at a single dose of 100 nM (for the non-specific control). After incubation and washes, cells were incubated with fluorescently labeled secondary antibody (Alexa Fluor® 488 anti-human IgG from Jackson Cat. No 709-546-098) for 1 hour on ice, then washed. Cell viability was determined using Fixable viability dye 450 (20 min on ice). Stained cells were fixed in 1% formaldehyde at 4° C. and stored at 4° C. until acquisition which was performed the next day.
(§4) Binding of recombinant chimeric Abs to three cell lines was assessed by FACS as described above. The apparent Bmax and Kd determination is shown below in Table 14.

[9] = molecular target: T2, recombinant human AXL extracellular …; assay: ELISA on coated AXL ECD (100 ng/well), VHH-Fc, HRP-protein A
Method: as §1

[10] = molecular target: T1, human AXL expressed on the cell surface …; assay: FACS on NCI-H292 cells, apparent Kd, human Fc format
Method: as §3, §4

[11] = molecular target: T2, recombinant human AXL extracellular …; assay: SPR, VHH-Fc captured, AXL ECD flowed, single-concentration kinetics (estimate)
Method: (§5) For VH Hs and VHH-Fcs, binding to human and cynomolgus AXL ECD was assessed using either a Biacore T200 instrument or a Biacore 3000 instrument. Either human AXL ECD or anti-human Fc antibody was immobilized on a research-grade CM5 series S sensor chip (T200, rhAXL ECD) or a C1 sensor chip (3000, anti-human Fc) using amine coupling in acetate buffer. VHH-Fcs were captured on anti-human Fc surfaces. Either monomeric VHHs (for rhAXL ECD surfaces) or human and cyno AXL ECD (for VHH-Fc surfaces) were flowed over the surfaces at different concentration ranges. Running buffers were HBS-EP (3000) and HBS-EP+(T200). Flow rates were 10-40 ul/min. All binding studies were performed at 25° C. Surfaces were regenerated using 10 mM glycine, pH 1.5.

[12] = molecular target: T4, recombinant cynomolgus AXL …; assay: as above
Method: as §5

[13] = molecular target: T1, human AXL expressed on the cell surface …; assay: FACS on SKOV3 cells, apparent Kd, human Fc format
Method: as §3, §4

Binder	EC50 [3]	Kd [4]	koff [4]	kon [4]	binding result [5]	binding result [7]	Kd [8]	EC50 [9]	Kd [10]	Kd [11]	koff [11]	kon [11]	Kd [12]	koff [12]	kon [12]	Kd [13]	other results
hFc-F111-5E9-DM1 (antibody, human IgG1, kappa, V domains shown, DM1 through SMCC linker on lysine residues; sites not given) VH: QIQLVQSGPELKKPGETVKISCKASGYTFTKYGMNWVKQAPGKGLKWMGWINTYTGEPTYADDFKGRFAFSLETSASTAYLQINNLTTEDMVTYFCAKGGYYSNPIYPMDYWGQGTSVTVSS VL: DIQMTQTTSSLSASLGDRVTISCRASQDINNYLNWYQQKPDGTVKLLIYYISRLHSGVPSRFSGSGSGTDYSLTISNLELEDVATYFCQQGNTLPFTFGSGTKLEIKR																	IC50 of growth inhibition (CellTiterGlo, 5 days) of NCI-H292 cells, -Gas6 [1]: 0.084 nM; IC50 of growth inhibition of NCI-H292 cells, +Gas6 (2 µg/mL) [1]: 0.074 nM; IC50 (read off the curve), growth inhibition of H292 cells, with added Gas6 (squares) [2]: ~0.04 nM; IC50 (read off the curve), growth inhibition of H292 cells, without added Gas6 (circles) [2]: ~0.04 nM
mIgG2 F149-4G4 (antibody, V domains shown, Printed as mIgG2 (mouse IgG2)) VH: QIQLVQSGPELKKPGETVKISCKTSGYTFTYYGINWVKQAPGKGLEWMGWINTYLGEPTYADDFKGRFAFSLETSASTAYLQINNLRDEDMATYFCTRGTMSYSFDYWGQGTALTVSS VL: QNVLTQSPAIMSASPGEEVTMTCRASSSVSSSYLHWYQQKSGASPKLWIYSTSKLASGVPARFSGSGSGTSYSLTISSVEAEDAATYYCHQYSGDPLTFGSGTKLEVK	15 nM	1 nM	0.0012 s⁻¹	750000 M⁻¹ s⁻¹	no binding												

The next lines start with results.

EC50 [3]	Kd [4]	koff [4]	kon [4]	binding result [5]	binding result [7]	Kd [8]	EC50 [9]	Kd [10]	Kd [11]	koff [11]	kon [11]	Kd [12]	koff [12]	kon [12]	Kd [13]	Binder	other results
14 nM	3 nM	0.0018 s⁻¹	560000 M⁻¹ s⁻¹	no binding												mIgG2 F155-3C7 (antibody, V domains shown, Printed as mIgG2 (mouse IgG2)) VH: QVQLQQPGTELVKPGASVKLSCKASGYIFTNFWINWVKQRPGQGLEWIGNIFPGSNSSNYNEKFKNKATLTVDKSSSTAYMHLSSLTSEDSAVYYCVRDYYGGSPDYWGQGTTLTVSS VL: DIVMSQSPSSLAVSAGEKVTMSCKSSQSLLNSKTRKNYLAWYQQKPGQSPKLLIYWASTRESGVPARFTGSGSGTDFTLTISSVQAEDLAIYYCKHSYNLWTFGGGTKLEIR	Kd [6]: 25 nM; koff [6]: 0.0073 s⁻¹; kon [6]: 290000 M⁻¹ s⁻¹
					no binding	0.832 nM	1 nM	2.12 nM	24 nM	0.0021 s⁻¹	89000 M⁻¹ s⁻¹	26 nM	0.0026 s⁻¹	100000 M⁻¹ s⁻¹	13.4 nM	NRC-sdAb006-Fc (VHH-human IgG1 Fc fusion) (Fc fusion, VHH fused N-terminally to human IgG1 Fc; also called NRC-sdAb006-hIgG1; not shown: human IgG1 Fc) QVKLEESGGGLVQAGASLRLSCVASESIFGFNTMGWYRQAPGNERELVASISNSKRTMYADSVKGRFTISRDNAKNTVNLQMNNLKPEDTAVYYCRAWGIITSATVYWGQGTQVTVSS	
					no binding	1.47 nM	1 nM	1.47 nM	34 nM	0.0041 s⁻¹	120000 M⁻¹ s⁻¹	35 nM	0.0046 s⁻¹	130000 M⁻¹ s⁻¹	2.03 nM	NRC-sdAb005-Fc (VHH-human IgG1 Fc fusion) (Fc fusion, VHH fused N-terminally to human IgG1 Fc; also called NRC-sdAb005-hIgG1; not shown: human IgG1 Fc) QVKLEESGGGLAQAGGSLRLSCAASGSISSINTIGWFRQAPGKQRELVAASDSGANRNYADSVKGRFTISRDNAKNTVYLQMNNLKPEDTAIYYCRAWGTGTISTMYWGQGTQVTVSS	
